Assay results as given in patent US20200078469A1, “HEPARIN-PEPTIDE BIOCONJUGATES AND USES THEREOF” (Symic IP, LLC, priority 2015, published 2020).
Ends that are not written are not given here.

Molecular target: collagen
Assay: Collagen-binding plate assay
Conditions: compared to Hep-SILY that does not contain aggregates
Description: The following method is used to assess the binding affinity of bioconjugates disclosed herein for collagen. Similar assays are employed to assess binding affinity of other targets (e.g., hyaluronic acid, ICAM, VCAM, selectin).
Collagen-binding of bioconjugate variants was compared by a plate-assay, in which collagen was coated on 96-well plates. Collagen was coated on high-bind plates at 50 μg/mL in 0.02 N acetic acid for 1 hour at room temperature. Unbound collagen was rinsed with 1×PBS pH 7.4. Plates were then blocked in 1% milk in 1×PBS solution for 1 hour at room temperature.
Bioconjugate variants containing biotinlyated peptides were dissolved to a final concentration of 1 mg/mL in 1% milk in 1×PBS pH 7.4. From this solution, a 10× serial dilution was performed. Molecules were then incubated on the blocked collagen-coated plates and incubated for 15 minutes at room temperature. Plates were then rinsed 3 times with 1×PBS in 1% BSA and 0.2% Tween20.
Bound molecules were detected by streptavidin-HRP, which was diluted 1:500 in 1×PBS with 1% BSA and 0.2% Tween20 and incubated 200 μL/well for 20 minutes at room temperature. Streptavidin solution was rinsed from the plates 3 times with 1×PBS with 0.2% Tween20. […] Absorbance in the well was then measured at 450 nm and binding affinity was plotted in a dose-response by absorbance vs. concentration.

- collagen binding affinity (EC50): higher affinity (lower EC50 values)
B1: Hep-SILY containing aggregates: Hep-SILY made with modified purification, containing ionically interacting non-covalently bound SILY peptide; high molecular weight aggregates (conjugate)
peptide 1: RRANAALKAGELYKSILYGSG
peptide 2: RRANAALKAGELYKSILYGSG
peptide 3: RRANAALKAGELYKSILYGSG
modifications: also: conjugated to heparin (glycan) via hydrazide-carbonyl linkage, non-covalent high molecular weight aggregates
